The target in this assay is HIS-MBP-GASZ-ΔMLS (mouse). Nature of the assay: native gel or EMSA; native PAGE of gel-filtration fraction 5, non-reducing and non-denaturing sample buffer (50 mM Tris pH 7.6, 100 mM NaCl, 0.01% DDM), with or without 2% SDS in the loading buffer, Coomassie blue; monomer to dimer.

For HIS-MBP-GASZ-ΔMLS (domain or fragment), the stoichiometry N (usually a count of units in the complex or per binding partner) stood at 2.

Values taken from paper PMC10781510.
